Measured values reported in the nanobody polyreactivity screen of Harvey et al. (2022).

Test: yeast display, Sf9 membrane polyspecificity reagent, FACS + sequencing; frameworks hold sequencing errors
Method in brief: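 Sorting gates, low and high (top ~1%), were placed on anti-HA fluorescence to track expression and on streptavidin fluorescence to track reagent binding. A clone's polyreactivity label is taken from the gate it came out of. The reagent was 10% biotinylated, detergent-solubilized Sf9 membrane, applied for 1 hour at 4 °C to galactose-induced yeast display cells.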

Sequence | polyreactivity (PSR sort gate)
QVQLVESGGGLVQAGGSLRLSCAASGSTFDVNAMGWYRQAPGKERELVAAITQSGGSTFYADSVKGRFTISRDNAKNTVYLQMNSLKPEDTAVYYWGQGTQVTVSS | low polyreactivity
QVQLLESGGGLVQAGGSLRLSCAASGSTCGRNAMGWYRQAPGKERELVAAITSTGSTYYADSVKGRFTISRDNAKNTFYLQMNSLNPEDTAVYYCAAEARPYLFPAYKYPYYSWGQGTQVTVSS | low polyreactivity
QVQLVESGGGLVQAGGSLRLSCAASGFIFYKNAMGWYRQAPGKERELVAISSSGGSTYYADSVKGRFTISRDNAKNSVYLQMNSLKPEDTAVYYCADRSRRYRGGYWGQGTQVTVSS | high polyreactivity
QVQLVESGGGLVQAGGSLRLSCAASGRIYAVNAMRWYRQAPGKERELVARIRRIGGSTYYADSVKGRFTISRDNAKNTVYLQMNSMKPEDTAVYYCAKTLGRRHPGYDYWGQGTQVTVSS | high polyreactivity
QVQPVESGGGLVQAGGSLRLSCAASGIIFISYDMGWYRQAPGKERELVARINWDGGSTYYADSVKGRFTISRDNAKNTVYLQMNSLKPEDTAVYYCAAGFVGTNYPLQGFSYEYWGQGTQVTVSS | low polyreactivity
QVQLVESGGGLVQAGGSLRLSCAASGRIFFVYAMGWYRQAPGKERELVAAISVSDVSTSYADSVKGRFTISRDNAKNTVYLQMNSLKPEDTAVYYFNAGFRFYTYSRIAGEDYGGQGTQVTVSS | low polyreactivity
QVQLVESGGGLVQAGGSLRLSCAASGFNFWRNAMGWYRQAPGKERELVAVITWSGGRTYYADSVKGRFTFSRDNAKNSVYLQMNSLKPEDSAVYYCSTEIVGPHFDYWGQGTQVTVSS | low polyreactivity
QVQLVESGGGLVQAGGSLRLSCASSGFTFTANDMGWYRKAPGKERELVAAISWSGDSTYYADSVKGRFTISRDNAKNTVYLQMNRLIPEDTAVYYCNVVFEFLSDGYYSYDYWVQGTQVTVSS | low polyreactivity
QVQLVESGGGLVQAGGSLRLSCAASGSIFDVNTMGWYRQAPGKERELVAAITNGYRTNYADSVKGRFTISRDNAKNTVYLQMNILKPEDTSVYYCNTDQGTTSDYCFWGQGTQVTVSS | low polyreactivity
QVQLQESGGGLVQAGGSLRLSCAASGSIFYVYGMGWYRLAPGKVRELVAGINAGTNTNYADSVRGRFTISRDNAKNTVHLQMTSLNPEETAVYYCAADGNGYQAHEYWGQGTQVTVSS | high polyreactivity
QVQLHESGGGLVQAGGGLRLSCAASGSISSTGFMGWYRQAPGKESEPVAAIAPGTTTYYADSVKGRFTISRDNAKNTVYLHMKSLRPEDTAVYYCAVFTDNRVAFLYWGEGTQVTVSS | low polyreactivity
QVQLVESGGGLVQAGGSLRLSCAASGSTFFPYAMGWYRQAPGKERELVAAIRWSGGRTYYADSVKGRFTISRDNAKNTVYLQMNSLNPEDTAVYYCAAAKYLDYDYWGQGTQVTVSS | high polyreactivity
QVQLVESGGGLVQAGGSLRLICAASGRTFCAYAMGWYRQAPGKERELVAAITTSGGSTNYADSVKGRFTISRDTAKYTVYLEMKSLKPEETAVYYCNADPTYHVVNGVGFWGQGTQVTVSS | low polyreactivity
QVQLVESGGGLVQAGGSLRISCAASGSTLLRNAMGWYRQAPGKERELVAVITYSGGSTYYADSVKGRFTISRDNAKNTVYLQMNSLKPEDTAVYYCAADIWYYVRYPTDAYSKFDYCGQGTQVTVSS | low polyreactivity
QVQLVESGGGLVQAGGSLRLSCAASGRIFSYNAMGWYRQAPGKERELVASISWSGGRTYYADSVKGRFTISRDNAKNTVYLQMNSLKPEDTAVYYCNAAYYTRVWGYDYWGQGTQVTVSS | high polyreactivity
QVQLVESGGGLVQAGGSLRLICAASGSTFRKYVMGWYRQAPGKERELVAAITKNGGSTYYADSVKGRFTISRDNAKNTVYLQMNSLKPEDTAVYYCATLRTGRVGNQDYDYWGQGTQVTVSS | high polyreactivity
QVQLVESGGGLVQAGGSLRLSCAAYGSTFRYNPLGWYRQAPGKETELVAANTSGGGTNSADSVKGRFTISRDNAKNTVYLQMNSLKPEDTAVYYCAAPWGLGSELLKRDYWGQGTQVTVSS | low polyreactivity
QVQLVESGGGLVQAGGSLRLSCAASGFTFAVYTMGWYRQAPGKERELVAAITGSGGRTYYADSVKGRFTISRDNAKNTVYLQMNSLKPEDTAVYYCNAVQRSSRQTFEYCGQGTQVTVSS | low polyreactivity
QVQLVESGGGLVQAGGSLRLSCAASGSNYRFYAMGWYRQAPGKERELVATISSSGGTTYYADSVKVRITISRDNAKNNVFLQMNSLKPEDTAVYYCAKDAFGWGRVYYYRSGYWGQGTQVTVSS | high polyreactivity
QVQLVESGGGLVQAGGSLRLSCAASGLTFYYYTMGWYRQAPGKERELVAAITSGGSTYYADSVKGRFTISRDNAKNTVYLQMNSLKPEDTAVYDCAAVPSRYGRYRYYYWGQGTQVTVSS | high polyreactivity
QVQLVESGGGLVQAGGSLRLSSAASGSTFGYYAMRWYRQAPGKARELVAAISSAGSTNDADSVKGRFTISRDNAKNTVYLQMNSLKPEDTAVYYCAAKVRVRWHTGLVTRDYDCGQGTQVTVSS | high polyreactivity
QVQLVESGGGLFQAGGSLRLSCAASGFTFHRNAMGWYRQAPGKERELVAAITLNGGSSTYYADSVKGRFTISRDNAKNTVYLQMNSLKAEDTAVYSCALDSYSYTFSKNSDPAEYEYWGQGTQVTVSS | low polyreactivity

Sequence | polyreactivity (PSR sort gate)
QVQLVESGGGLVQAGGSLRLSCAASGTIFDDNAMGWYRHAPGKERELVAAISANDGSTYYADSVKGRFTISRDNAKNTVYLQMNSLKQEDTAVYYCAVLRVETVDIWEYDYWGQGTQVTVTS | low polyreactivity
QVQLVESGGGLVQAGGSLRLSCAASGRIFVHYAMGWYRQAPGKEREWVAAITSGSSTNYADSVKGRFTISRDNAKNTVYLQMNSLKPEDTAVYYCAVDDWLDWLCADFGYWGQGTQVTVSS | low polyreactivity
QVQLVESGGGLVQAGGSLRLSCPASGFIFSIYTMGWYRQAPGKERELVAAITRSGSSTYYADSVKGRFTISRDNAKNTVYLQMNSLKPEDTAVSYCNRLCFGQYQPFYGYWGQGTQVTVSS | high polyreactivity
QVQLVESGGGLVQAGGSLRLSCAASGSIIKVYAMGWYRQAPGKERELVAAITSDGSTYYADSVKGRFTISRDNAKNTVYLQLNSLKPVDTAVYYCAASVYYLYFHGKYDYWGQGTQVTVSS | low polyreactivity
QVQLVESGGGLFQEGGSLRLSCAASGFTFLYYDMGWYRQAPGKERELVAAINSSGGGTYYADSVKGRFTISRDNAKNTVYLQMNSLKPEDTAVYYCAVSWSDGYDYWGQGTQVTVSS | high polyreactivity
QVQLQESVGGLVQAGGSLRLSCAASGNIFPTDRMGWYRQAPGKELEFVATNSHGGSTNYADSVKGRFTISRDNAKNTVYLQMNSLKPEDTAVYYCAVWSLGRWRHYYWGQGTQVTVSS | low polyreactivity
QVQLVESGGGLVQAGGSLRLSFAASGFTFSAYAMGWYRQAPGKERELVASISGSAGSTYYADTVKGRFTISRYNAKNTVYLHMNSLKPEDTAVYYCNARRRQWQARYDYWGQGTQITVSS | high polyreactivity
QVQLVESGGGLVQAGGSLRLSCAASGITFWSYAMGWYRQAPGKERELVAAISRGGDSTYYADSVKGRFTISRDNAKNTVYLQMNSLKPEDTAVYYCAALRKREEYYWGQGTQVTVSS | high polyreactivity
HVHLVESGGGLVQAGGSLRLSCASSGPTFGWNVMGWYRQAPGKERELVAAISGSGGSTYYADSVKGRFTISRDNAKNTVYSQMNSLKPEDTAVYYCAALYGPGREYDYWGQGTQVSVSS | low polyreactivity
QVQLVDSGGGLVQAGGSLRLSCAASGSISYYNAMGWYRQAPGKERELVATITDSGGSTYYADSVKGRFTISRDNAKNTVYLQMNSLKPEDTAVYYCAVDYSEWYSIYDYWGQGTQVTVSS | low polyreactivity
QVQLVESRGGLVQAGGSLRLSCAASGSTFKRYTMGWYRQAPGKESELVAAISTSSGSTYYADCVKGRFTISRDNAKNTVYLQMNSLKPDDSAVYYCAAVRHRQSYPKYNYWGQGTQVTVSS | high polyreactivity
QVQLEESGGGLVQAGGSLRLSYAASGSIYSYYAMGWYRQAPGKERELVAAISRSGTSTYYADSVKGRFTISRDNAKNTVYLQMNSLKPEDTAVYYFGYYYGGDYWGQGTQVTVSS | high polyreactivity
QVQLVESGGGLVQAGGSLRLSCAASGRIFRYYAMGWYRQAPGKERELVAGISWRGSSTYYADSVKGRFTISRDNAKNTVYLQMNSLKPADTAVYYCNRDLSIIPVTGGRFYYWGQGTQVTVSS | high polyreactivity
QVQLVESGGGLVQAGGSLRLSCAASGRIFVRYAMGWYRQAPGKERELVAAISSRGGTTYYADSVKGRFTISRDNAKNTVYLQMNSLKPEDTAVYYCAALYDSTYGGVLFDYWGQGTQVTVSS | low polyreactivity
QVQLVESGGGLVQAGGSLRLSCAASGRIFKDTAMGWYRQAPGKDRELVAGITSIGDNTYYADSVKGRFTISRDNAKNTVYLQMHSLKPEDSAVYDCNALYPYVNGTVPRTTGEYDYWGQGTQVTVSS | low polyreactivity
QVQLVESGGGLVQAGGSLRLSCAASGSTFYYNAMGWYRQSPGKERELVARISRSGGSTYADSVKRRFTISRDNAKNTVYLQMNSLKPEDTAVYYCNAEAYGTPEFTSYAVRYDYWGQGTQVTVSS | low polyreactivity
QDQLVESAGGLVQAGGSLRLSCAASGRTFRAYAMGWYRQAPGKAMELVAAISRNGGTTYYADSVKGRFTMSRDNAKNTVYLQMNSLKPEDTAVSYCNARAGTKTGLKSDYWGQGTQVTVSS | high polyreactivity
QVQLVESGGGLVQAGGSLRLSSAASGGILPIYAMGWYRQAPGKERELVATITGSGGGTYADSVKGRFTISRDNAKNTVYLQMNSLKPEDTAVYYCNADLGPVGHIDGYSYYDYDYWGQGTQVTVSS | low polyreactivity
QVQLVESGGGLVQAGGSLRLSCAASGITFVRNAMGWYRQAPGKEREFVAAISGSGVSTYADSVKGRFTISRDNAKNTVYLQMNSLKPEDTAVYYCARDFPWSYAWYDYWGQGTQVTVSS | low polyreactivity
QVQLVESGGRLVQAGGSLRLSCAASGSIFLKYAMRWYRQAPGKERELVAAISSAGRTYYADSVKGRFTISRDNAKKTVYLQMNSLKPEETAVSYCAARYPYDWRHDYWGQGTQVTVSS | low polyreactivity
HVQLVESGGGLVQAGGSLRESCAASGRTFDDIAMGRYRQAPGKERELVAAINWSGASTYYADSVKGRFTISRDNAKNTVYLQMNSLKPEDTAVYYCAAVFWKSDSAYYEYGYWGQGTQVTVSS | low polyreactivity
